Assay results taken from article doi:10.1101/2023.07.31.551325 (bioRxiv, 2023).

Target: the molecule itself
Test: AUC

B1: recombinant full-length Plasmodium vivax Sub1 (PvS1FL) (complex)
chain 1: GDILPNEGKKEKDDVHKIISELRFLQKVETILESSNMSVSDVEADANAYNPDRDAPKEELQKLQDQQETPSKQPNNLRNSPQKRAEKKESPGKNKKSLRLIVSENHATSPSFFEESLLQEDVVSFIQSKGKLSNLKNLKSMIIDLNSDMTDEELAEYISLLERKGALIESDKLVGAD
chain 2: DVSLASVKDAVRRGESSVNWGKLRSTMLEVPSGESPPSHAASSGSPFDDDDDLLSEAALHREEAHLAGSKTTKGYKFNDEYRNLQWGLDLARLDETQDLINANRVSVTKICVIDSGIDYNHPDLRNNIDVNVKELHGRKGVDDDSNGVVDDVYGANFVNNSGDPMDDNYHGTHVSGIISAVGNNGIGIVGVDGHSKLVICKALDQHKLGRLGDMFKCIDYCISRQAHMINGSFSFDEYSNIFNASVEHLRSLGILFFVSASNCAHDKLSKPDIAKCDLAVNHRYPPILSKTHNNVIAVANLKRDLDESYSLSVNSFYSNIYCQLAAPGTNIYSTTPMNNYRKLNGTSMASPHVAAIASIVRSINPNLTYLQIVEILRNAIVKLPSLTERVSWGGYVDILRAVNLAIDSKAAPYIKSHSWFRWKQGSRR
stoichiometry N: 2
